Laboratory results as given in paper PMC6179186, “Novel RNA aptamers targeting gastrointestinal cancer biomarkers CEA, CA50 and CA72-4 with superior affinity and specificity”.

B1: CEA A02 (structured_RNA)
RNA: GGGUCGUGUCGGAUCCAACGGCAUGACCUAACCUGGAGGCGCAUCAAAGCUUCUAAGGUAACGAU

Tests used:
[1] = tested on: CA50 (cancer antigen 50) (human); experiment: fluorescence titration; settings: 5 mM MgCl2; yeast tRNA competitor 1 ug/ul; RSB-100: 10 mM Tris-HCl pH 7.5, 5 mM MgCl2, 100 mM NaCl, 0.01% NP-40, yeast tRNA 1 ug/ul, room temperature, 10 min; 1 pmol RNA, antigen 0-200 nM
[2] = tested on: CA72-4 (cancer antigen 72-4) (human); experiment: fluorescence titration; settings: 5 mM MgCl2; yeast tRNA competitor 1 ug/ul; RSB-100: 10 mM Tris-HCl pH 7.5, 5 mM MgCl2, 100 mM NaCl, 0.01% NP-40, yeast tRNA 1 ug/ul, room temperature, 10 min; 1 pmol RNA, antigen 0-200 nM
[3] = target: CEA (carcinoembryonic antigen) (human, UniProt P06731 35-685); experiment: fluorescence titration; 5 mM MgCl2; yeast tRNA competitor 1 ug/ul; RSB-100: 10 mM Tris-HCl pH 7.5, 5 mM MgCl2, 100 mM NaCl, 0.01% NP-40, yeast tRNA 1 ug/ul, room temperature, 10 min; 1 pmol RNA, antigen 0-200 nM; settings: protein: commercial; label: Alexa Fluor 488 (ULS); mfold-predicted secondary structure
Sequence of CEA (carcinoembryonic antigen) (P06731 35-685): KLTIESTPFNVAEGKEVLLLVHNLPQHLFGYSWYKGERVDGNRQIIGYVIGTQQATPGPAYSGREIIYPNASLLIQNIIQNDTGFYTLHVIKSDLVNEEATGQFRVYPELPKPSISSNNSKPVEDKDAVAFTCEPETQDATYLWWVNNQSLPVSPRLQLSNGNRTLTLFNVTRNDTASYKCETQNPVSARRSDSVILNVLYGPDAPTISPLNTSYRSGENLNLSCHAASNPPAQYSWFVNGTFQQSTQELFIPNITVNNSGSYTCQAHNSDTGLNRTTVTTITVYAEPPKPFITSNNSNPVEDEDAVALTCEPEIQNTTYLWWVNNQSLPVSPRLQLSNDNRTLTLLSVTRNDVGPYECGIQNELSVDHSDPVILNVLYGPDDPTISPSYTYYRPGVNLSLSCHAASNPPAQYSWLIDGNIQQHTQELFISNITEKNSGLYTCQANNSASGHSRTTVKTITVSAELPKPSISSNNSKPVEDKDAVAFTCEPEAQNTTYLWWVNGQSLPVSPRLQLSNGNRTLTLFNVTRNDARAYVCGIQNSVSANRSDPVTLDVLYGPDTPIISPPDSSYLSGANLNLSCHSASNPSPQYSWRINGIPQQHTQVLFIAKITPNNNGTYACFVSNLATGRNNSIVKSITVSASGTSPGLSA

Molecule | Kd [1] [nM] | Kd [2] [nM] | also measured
GGGUCGUGUCGGAUCCAGCUCGAAAGUGGGCUGGCGAUGUGUCCCGAAGCUUCUAAGGUAACGAU [CA50 A02] | 30.7 | – | –
GGGUCGUGUCGGAUCCCCCAAAAAGGAUUGGGGCGUCUGCAUGACCAAGCUUCUAAGGUAACGAU [CA72-4 A02] | – | 71.2 | –
GGGUCGUGUCGGAUCCGUGAGUUUUUCGCGGCGAAGACAAGGCUCGAAGCUUCUAAGGUAACGAU [CA50 A01] | 38 | – | –
GGGUCGUGUCGGAUCCUGCGAAGGGGGGCAGAGGUUUGACGCGAGAAAGCUUCUAAGGUAACGAU [CA72-4 A01] | – | 52.7 | –
B1 | – | – | Kd [3]: 156 nM
